Assay results from PMC4911921, “Hfq assists small RNAs in binding to the coding sequence of ompD mRNA and in rearranging its structure”.

How the values were obtained:
Hfq wt [1] = target: T1, Hfq wt (Salmonella, UniProt P0A1R0 1-102); assay: EMSA; specific site (Ks); 24 mM Tris-HCl pH 7.5, 50 mM NaCl, 50 mM NH4Cl, 50 mM KCl, 0.5 mM EDTA, 2 mM MgCl2, 5% glycerol, room temperature, 1 h; 6% native gel in 1x THEM2; details: protein: recombinant, tags: C-terminal His6, chain copies: 6, label: 5'-32P
Hfq wt [2] = target: T1, Hfq wt; assay: EMSA; two nonspecific sites (Kns); 24 mM Tris-HCl pH 7.5, 50 mM NaCl, 50 mM NH4Cl, 50 mM KCl, 0.5 mM EDTA, 2 mM MgCl2, 5% glycerol, room temperature, 1 h; 6% native gel in 1x THEM2; details: protein: recombinant, tags: C-terminal His6, chain copies: 6, label: 5'-32P
Hfq R16A [3] = target: T2, Hfq R16A (Salmonella, UniProt P0A1R0 1-102, R16A); assay: EMSA; tightest complex; 24 mM Tris-HCl pH 7.5, 50 mM NaCl, 50 mM NH4Cl, 50 mM KCl, 0.5 mM EDTA, 2 mM MgCl2, 5% glycerol, room temperature, 1 h; 6% native gel in 1x THEM2; details: protein: recombinant; tags: C-terminal His6; chain copies: 6; label: 5'-32P; five stem-loops SL1-SL5
Hfq Y25D [4] = target: T3, Hfq Y25D (Salmonella, UniProt P0A1R0 1-102, Y25D); assay: as above; details: protein: recombinant; tags: C-terminal His6; chain copies: 6; label: 5'-32P; five stem-loops SL1-SL5
Hfq K56A [5] = target: T4, Hfq K56A (Salmonella, UniProt P0A1R0 1-102, K56A); assay: as above; details: protein: recombinant; tags: C-terminal His6; chain copies: 6; label: 5'-32P; five stem-loops SL1-SL5
Hfq R16A [6] = target: T2, Hfq R16A; assay: EMSA; 24 mM Tris-HCl pH 7.5, 50 mM NaCl, 50 mM NH4Cl, 50 mM KCl, 0.5 mM EDTA, 2 mM MgCl2, 5% glycerol, room temperature, 1 h; 6% native gel in 1x THEM2; details: protein: recombinant; tags: C-terminal His6; chain copies: 6; label: 5'-32P
Hfq Y25D [7] = target: T3, Hfq Y25D; assay: as above; details: protein: recombinant; tags: C-terminal His6; chain copies: 6; label: 5'-32P
Hfq K56A [8] = target: T4, Hfq K56A; assay: as above; details: protein: recombinant; tags: C-terminal His6; chain copies: 6; label: 5'-32P
Hfq wt [9] = target: T1, Hfq wt; assay: as above; details: protein: recombinant, tags: C-terminal His6, chain copies: 6, label: 5'-32P
Hfq wt [10] = target: T1, Hfq wt; assay: EMSA; 3 nM Hfq hexamer; 24 mM Tris-HCl pH 7.5, 50 mM NaCl, 50 mM NH4Cl, 50 mM KCl, 0.5 mM EDTA, 2 mM MgCl2, 5% glycerol, room temperature, 1 h; 6% native gel in 1x THEM2; details: protein: recombinant; tags: C-terminal His6; chain copies: 6; label: 32P

B1: ompD-187 (structured_RNA)
RNA: GCCAUUGACAAACGCCUCGUUUAACAAUGGUUGAGGAAACACGCUAAGAAAAUUAUAAGGAUUAUUAAAAUGAAACUUAAGUUAGUGGCAGUGGCAGUGACUUCCCUGUUGGCAGCAGGCGUUGUAAAUGCAGCCGAGGUAUAUAACAAAGACGGCAAUAAACUGGAUCUGUACGGUAAAGUUCACG
Kd (Hfq wt [1]; five stem-loops SL1-SL5): 0.61 ± 0.17 nM | Kd (Hfq wt [2]; five stem-loops SL1-SL5): 1.9 ± 0.58 nM | binding signal (Hfq R16A [3]): ~1 fold vs wt Hfq (not changed) | binding signal (Hfq Y25D [4]): ~3 fold weaker than wt Hfq | binding signal (Hfq K56A [5]): ~2 fold weaker than wt Hfq

B2: ompD-187 ARN-1 (structured_RNA)
RNA: GCCAUUGACAAACGCCUCGUUUCGCAAUGGUUGAGGAAACACGCUAAGAAAAUUAUAAGGAUUAUUAAAAUGAAACUUAAGUUAGUGGCAGUGGCAGUGACUUCCCUGUUGGCAGCAGGCGUUGUAAAUGCAGCCGAGGUAUAUAACAAAGACGGCAAUAAACUGGAUCUGUACGGUAAAGUUCACG
Kd (Hfq wt [1]): 0.77 ± 0.097 nM | Kd (Hfq wt [2]): 3 ± 0.46 nM

B3: ompD-187 ARN-3 (structured_RNA)
RNA: GCCAUUGACAAACGCCUCGUUUAACAAUGGUUGAGGAAACACGCUUUGAUAUUAUAAGGAUUAUUAAAAUGAAACUUAAGUUAGUGGCAGUGGCAGUGACUUCCCUGUUGGCAGCAGGCGUUGUAAAUGCAGCCGAGGUAUAUAACAAAGACGGCAAUAAACUGGAUCUGUACGGUAAAGUUCACG
binding signal (Hfq R16A [6]): ~6 fold weaker than R16A to ompD-187 | binding signal (Hfq Y25D [7]): ~1 fold vs same Hfq mutant to ompD-187 (similar) | binding signal (Hfq K56A [8]): ~1 fold vs same Hfq mutant to ompD-187 (similar) | Kd (Hfq wt [1]): 0.93 ± 0.24 nM | Kd (Hfq wt [2]): 2.9 ± 0.35 nM

B4: ompD-187 ARN-5 (structured_RNA)
RNA: GCCAUUGACAAACGCCUCGUUUAACAAUGGUUGAGGAAACACGCUAAGAAAAUUAUAAGGAUUAUUAAAAUGAAACUUAAGUUAGUGGCAGUGGCAGUGACUUCCCUGUUGGCAGCAGGCGUUGUAAAUGCAGCCGAGGUAUAUAACGAGGACGGCAAUAAACUGGAUCUGUACGGUAAAGUUCACG
Kd (Hfq wt [1]): 0.89 ± 0.093 nM | Kd (Hfq wt [2]): 3 ± 0.46 nM

B5: ompD-187 ARN-6 (structured_RNA)
RNA: GCCAUUGACAAACGCCUCGUUUAACAAUGGUUGAGGAAACACGCUAAGAAAAUUAUAAGGAUUAUUAAAAUGAAACUUAAGUUAGUGGCAGUGGCAGUGACUUCCCUGUUGGCAGCAGGCGUUGUAAAUGCAGCCGAGGUAUAUAACAAAGACGGCCAUUCACUGGAUCUGUACGGUAAAGUUCACG
Kd (Hfq wt [1]): 0.82 ± 0.075 nM | Kd (Hfq wt [2]): 2.4 ± 0.29 nM

B6: ompD-1-95 (structured_RNA)
RNA: GCCAUUGACAAACGCCUCGUUUAACAAUGGUUGAGGAAACACGCUAAGAAAAUUAUAAGGAUUAUUAAAAUGAAACUUAAGUUAGUGGCAGUGGC
binding signal (Hfq wt [9]; SL1, SL2): ~1 fold vs ompD-187 (similar)

B7: ompD-35-131 (structured_RNA)
RNA: GGAAACACGCUAAGAAAAUUAUAAGGAUUAUUAAAAUGAAACUUAAGUUAGUGGCAGUGGCAGUGACUUCCCUGUUGGCAGCAGGCGUUGUAAAUGC
binding signal (Hfq wt [9]; SL2, SL3): ~4 fold tighter than ompD-187

B8: ompD-93-187 (structured_RNA)
RNA: GGCAGUGACUUCCCUGUUGGCAGCAGGCGUUGUAAAUGCAGCCGAGGUAUAUAACAAAGACGGCAAUAAACUGGAUCUGUACGGUAAAGUUCACG
binding signal (Hfq wt [9]; SL3, SL4, SL5): ~6 fold weaker than ompD-187

B9: ompD-187 ARN-2 (structured_RNA)
RNA: GCCAUUGACAAACGCCUCGUUUAACAAUGGUUGUUGAUACACGCUAAGAAAAUUAUAAGGAUUAUUAAAAUGAAACUUAAGUUAGUGGCAGUGGCAGUGACUUCCCUGUUGGCAGCAGGCGUUGUAAAUGCAGCCGAGGUAUAUAACAAAGACGGCAAUAAACUGGAUCUGUACGGUAAAGUUCACG
Kd (Hfq wt [1]): 0.85 ± 0.003 nM | Kd (Hfq wt [2]): 2.2 ± 0.25 nM

B10: ompD-187-SL2mut (structured_RNA)
RNA: GGCCAUUGACAAACGCCUCGUUUAACAAUGGUUGAGGAAACACGCUUUGAUAAUUCUAGGGCUUAUUUUUAUGAUGCUUAAGUUAGUGGCAGUGGCAGUGACUUCCCUGUUGGCAGCAGGCGUUGUAAAUGCAGCCGAGGUAUAUAACAAAGACGGCAAUAAACUGGAUCUGUACGGUAAAGUUCACG
binding signal (Hfq R16A [6]): ~10 fold weaker than R16A to ompD-187 | binding signal (Hfq Y25D [7]): ~1 fold vs same Hfq mutant to ompD-187 (similar) | binding signal (Hfq K56A [8]): ~1 fold vs same Hfq mutant to ompD-187 (similar) | binding signal (Hfq wt [9]): ~3 fold weaker than ompD-187

GCCACUGCUUUUCUUU (ssRNA) [RybB-16]
binding result (Hfq wt [10]): no binding

GCCUGCAUUAAUGCCAAC (ssRNA) [SdsR-18]
binding result (Hfq wt [10]): no binding

GUUAUAUGCCUU (ssRNA) [MicC-12]
binding result (Hfq wt [10]): no binding

UAAGUUAGUGGCAGUGGCAGU (ssRNA) [ompD-21R]
binding result (Hfq wt [10]): no binding

CCUGUUGGCAGCAGGCGUU (ssRNA) [ompD-19S]
binding result (Hfq wt [10]): no binding

GCCGAGGUAUAUAACAAA (ssRNA) [ompD-18M]
binding result (Hfq wt [10]): no binding

B11: ompD-187 ARN-5+6 (structured_RNA)
RNA: GCCAUUGACAAACGCCUCGUUUAACAAUGGUUGAGGAAACACGCUAAGAAAAUUAUAAGGAUUAUUAAAAUGAAACUUAAGUUAGUGGCAGUGGCAGUGACUUCCCUGUUGGCAGCAGGCGUUGUAAAUGCAGCCGAGGUAUAUAACGAGGACGGCCAUUCACUGGAUCUGUACGGUAAAGUUCACG
Kd (Hfq wt [1]): 0.81 ± 0.09 nM
